Experimental data reported in US20250042994A1 (HAINAN SIMCERE ZAIMING PHARMACEUTICAL, published 2025).

T1: cynomolgus monkey CD19 on peripheral blood B cells (cynomolgus monkey (Macaca fascicularis), UniProt A0A2K5W8L9 20-557)
T1 construct: whole, on cells; also called cynomolgus monkey B cells
T1 sequence: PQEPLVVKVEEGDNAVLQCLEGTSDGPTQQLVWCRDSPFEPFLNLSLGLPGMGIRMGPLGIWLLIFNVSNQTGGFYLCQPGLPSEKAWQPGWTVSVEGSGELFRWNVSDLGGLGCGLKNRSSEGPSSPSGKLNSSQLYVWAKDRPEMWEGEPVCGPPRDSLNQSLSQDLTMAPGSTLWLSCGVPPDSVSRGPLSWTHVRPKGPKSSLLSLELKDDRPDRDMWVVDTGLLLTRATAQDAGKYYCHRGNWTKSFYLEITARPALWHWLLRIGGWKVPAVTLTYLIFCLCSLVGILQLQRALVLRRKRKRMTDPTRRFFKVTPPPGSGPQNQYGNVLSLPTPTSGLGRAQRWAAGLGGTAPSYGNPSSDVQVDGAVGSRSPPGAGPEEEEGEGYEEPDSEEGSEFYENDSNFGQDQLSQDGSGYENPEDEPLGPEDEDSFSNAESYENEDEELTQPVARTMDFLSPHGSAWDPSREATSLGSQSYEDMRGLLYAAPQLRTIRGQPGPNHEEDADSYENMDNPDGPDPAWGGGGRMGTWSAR

T2: human CD19 on Raji cells (human, UniProt P15391 20-556)
T2 construct: whole, on cells
T2 sequence (looked up): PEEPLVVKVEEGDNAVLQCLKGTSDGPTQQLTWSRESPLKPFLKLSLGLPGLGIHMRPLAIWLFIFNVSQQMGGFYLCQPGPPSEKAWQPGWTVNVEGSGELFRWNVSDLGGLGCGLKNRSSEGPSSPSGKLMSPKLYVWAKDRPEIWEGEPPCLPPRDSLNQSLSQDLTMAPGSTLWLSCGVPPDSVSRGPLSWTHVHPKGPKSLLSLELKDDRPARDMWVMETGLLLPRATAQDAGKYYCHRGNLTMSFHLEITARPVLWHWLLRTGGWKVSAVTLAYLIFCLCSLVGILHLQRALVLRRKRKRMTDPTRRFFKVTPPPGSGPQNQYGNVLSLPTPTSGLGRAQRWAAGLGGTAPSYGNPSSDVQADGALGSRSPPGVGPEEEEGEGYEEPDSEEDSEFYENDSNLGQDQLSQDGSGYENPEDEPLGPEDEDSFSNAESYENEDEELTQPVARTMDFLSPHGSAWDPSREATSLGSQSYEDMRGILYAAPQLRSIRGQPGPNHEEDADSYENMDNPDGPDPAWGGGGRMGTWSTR

T3: human CD19 on CHO-K1-human CD19 cells (human, UniProt P15391 20-556)
T3 construct: whole, on cells; also called CHO-K1-human CD19-2C8
T3 sequence (looked up): T2 sequence (looked up)

B1: F4.82.11 (antibody, human IgG1, V domains shown)
VH: QVTLKESGPGILQASQTLSLTCSFSGFSLSTFGIGVGWVRQPSGKGLEWLAHIWWNDNKFFNTTLKNRLTLSKDPSNNQVFLKIASVDTADTATYYCARSRSALITTGLYAMDYWGQGTSVTVSS
VL: DIQMTQTPSSLSASLGDRVTISCRSSQDISNYVNWYQQKPDGTVKVLINYTSRLHSGVPSRFSGSGSGTDYSLTISNLEQEDIASYFCQQGFTLPYTFGGGTKLEIK
notes: human-murine chimeric antibody, human IgG1
B2: F4.49.11 (antibody, human IgG1, V domains shown)
VH: DVQLRASGPGLVKPSQSLSLTCSVTGYSITSGYYWNWIRQFPGNKLEWMGCISYDGTNNYNPSLKNRISFTRDTSKNQFFLNLNSVTTEDSATYYCARRVYYRYDGVVDYWGQGTSVTVSS
VL: ENVLTQSPAIMSASPGEKVTMTCSASSSVSYIHWYQQKSSTAPKLWIYDTSKLASGVPGRFSGSRSRNSYSLTISSMEAEDVATYYCFQGSGYPLTFGSGTKLEIK
notes: as for B1
B3: F4.107.12 (antibody, human IgG1, V domains shown)
VH: EVQLQQSGPELVKPGASVKMSCKASGYTFTSYVLHWVRQKPGQGLEWIGYFNPYNDGTEYNEKFKGKAILTSDKSSSTAYMELNSLTSEDSAVYYCVGGTYYYGSSYPFAYWGQGTLVTVST
VL: DVVMTQISLSLPVSLGDQASISCRSSQSLIHSNGNTYLQWYLQKPGQSPKLLIYKVSNRLSGVPDRFSGSGSGTDFTLKISRVEAEDLGVYFCSQSTHVPYTFGGGTKLEIK
notes: as for B1
B4: F4.152.7 (antibody, human IgG1, V domains shown)
VH: QVQLQQPGAELVKPGASVKLSCKASGYTFTSYWMHWVKQRPGQGLEWIGEIDPSDSYTNYNQKFKGKATLTADKSSSTAYMQLSGLTSEDSAVYHCARGGDYDGYYVMDYWGQGTSVTVSS
VL: EIVLTQSPTTMAASPGEKITITCSASSSISSNYLHWYQQKPGFSPKLLIYRTSNLASGVPARFSGSGSGTSYSLTIGTMEADDVATYYCQQGSYIPRIFTFGSGTKLEIK
notes: as for B1
B5: F4.78.1 (antibody, human IgG1, V domains shown)
VH: QVQIQQSGAELARPGASVKLSCKASGYTFTNYWMQWIKQRPGQGLEWIGAIYPGDGDTRYTQKFKGKATLTADKSSSTAYMQLSSLASEDSAVYYCAREEVWSPYGMDYWGQGTSVTVSS
VL: QIVLTQSPAIMSASPGEKVTITCSASSSVSYMGWFQQKPGTSPKLWIYSTSNLASGVPARFSGSGSGTSYSLTISRMEAEDAATYYCQQRSIYPLTFGAGTKLELK
notes: as for B1
B6: F4.191.1 (antibody, human IgG1, V domains shown)
VH: QVQLQQPGAELVRPGASVKLSCKASGYTFTSYWINWVKQRPGQGLEWIGNIHPSDSYTNYNQKFKDKATLTVDKSSSTAYMQFSSPTSEDSAVYYCTREDYYYGSNYDAMDYWGQGTSVTVSS
VL: DIVMTQSHKFMSTSVGDRVNITCKASQDVGSSVAWYQQKPGQSPKLLIYWASTRHAGVPDRFTGSGSGADFTLTISNVQSEDLADYFCQQYSTYPLTFGAGTKLELK
notes: as for B1
B7: F4.96.6 (antibody, human IgG1, V domains shown)
VH: EIQLQQSGPELVKPGASVKVSCKASGYAFSAYNIYWVKQSHGKSLEWIGYIDPYNSGTTYNQKFRGKATLTVDKSSNTAYMHLSSLTSEDSAVYYCTRDGDAMDYWGQGTSVTVSS
VL: EILLTQSPAIIAASPGEKVTITCSASSGVIYMNWYQQKPGSSPKIWIYDVSTLASGVPARFSGSGSGTSFSFTINSMEAEDVATYYCQQRSSYPYTFGGGTKLEIK
notes: as for B1

The binders below were run against T1, cynomolgus monkey CD19 on peripheral … (assay: FACS, cynomolgus PBMC, CD20+ B cells).

Binder	Proportion of chimeric antibody positive cells to B cells (%) at 1 nM	Proportion of chimeric antibody positive cells to B cells (%) at 10 nM	Proportion of chimeric antibody positive cells to B cells (%) at 100 nM
B1	97%	98%	99%
B2	67%	96%	98%
B3	20%	35%	67%
B4	2%	2%	3%
B5	21%	29%	74%
B6	3%	15%	50%
B7	1%	2%	1%

Each binder was assayed against T4, monkey CD19 on HEK293T-monkey CD19 cells (monkey) (assay: FACS on HEK293T-monkey CD19 cells).
T4 construct: whole, on cells
Method in brief: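 Antibody binding was read as MFI by flow cytometry and EC50 was taken from curve fitting. Before that, cells at 2×10⁶ cells/ml in PBS with 2% (w/w) BSA were exposed to samples for 2 h on ice and washed. Parental HEK293T cells were tested the same way.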

Binder	EC50	Maximum mean fluorescence intensity
B1	1.18 nM	66600
B2	3.08 nM	73500
B3	1.24 nM	69500
B4	–	58
B5	0.73 nM	57000
B6	1.14 nM	59600
B7	–	73

These binders were tested against T2, human CD19 on Raji cells (assay: FACS on Raji cells).

Binder	EC50	Maximum mean fluorescence intensity
B1	0.85 nM	16600
B2	6.21 nM	20300
B3	0.6 nM	26700
B4	0.76 nM	26000
B5	1.52 nM	36900
B6	1.89 nM	32300
B7	0.74 nM	25700

These binders were tested against T3, human CD19 on CHO-K1-human CD19 cells (assay: FACS on CHO-K1-human CD19 cells).

Binder	EC50	Maximum mean fluorescence intensity
B1	0.32 nM	26000
B2	3.1 nM	44200
B3	0.77 nM	59900
B4	0.78 nM	58900
B5	0.51 nM	44300
B6	0.34 nM	26500
B7	1.16 nM	52000
